Data: patent publication US20130195836A1

Molecular target: human macrophage mannose receptor C type 1 (MRC1) (human) (UniProt P22897)
Experiment: flow cytometry on stable pool of MRC1-transfected HT1080 cells compared to untransfected HT1080 cells

Sequence of UniProt P22897 (P22897 19-1456 limits assumed): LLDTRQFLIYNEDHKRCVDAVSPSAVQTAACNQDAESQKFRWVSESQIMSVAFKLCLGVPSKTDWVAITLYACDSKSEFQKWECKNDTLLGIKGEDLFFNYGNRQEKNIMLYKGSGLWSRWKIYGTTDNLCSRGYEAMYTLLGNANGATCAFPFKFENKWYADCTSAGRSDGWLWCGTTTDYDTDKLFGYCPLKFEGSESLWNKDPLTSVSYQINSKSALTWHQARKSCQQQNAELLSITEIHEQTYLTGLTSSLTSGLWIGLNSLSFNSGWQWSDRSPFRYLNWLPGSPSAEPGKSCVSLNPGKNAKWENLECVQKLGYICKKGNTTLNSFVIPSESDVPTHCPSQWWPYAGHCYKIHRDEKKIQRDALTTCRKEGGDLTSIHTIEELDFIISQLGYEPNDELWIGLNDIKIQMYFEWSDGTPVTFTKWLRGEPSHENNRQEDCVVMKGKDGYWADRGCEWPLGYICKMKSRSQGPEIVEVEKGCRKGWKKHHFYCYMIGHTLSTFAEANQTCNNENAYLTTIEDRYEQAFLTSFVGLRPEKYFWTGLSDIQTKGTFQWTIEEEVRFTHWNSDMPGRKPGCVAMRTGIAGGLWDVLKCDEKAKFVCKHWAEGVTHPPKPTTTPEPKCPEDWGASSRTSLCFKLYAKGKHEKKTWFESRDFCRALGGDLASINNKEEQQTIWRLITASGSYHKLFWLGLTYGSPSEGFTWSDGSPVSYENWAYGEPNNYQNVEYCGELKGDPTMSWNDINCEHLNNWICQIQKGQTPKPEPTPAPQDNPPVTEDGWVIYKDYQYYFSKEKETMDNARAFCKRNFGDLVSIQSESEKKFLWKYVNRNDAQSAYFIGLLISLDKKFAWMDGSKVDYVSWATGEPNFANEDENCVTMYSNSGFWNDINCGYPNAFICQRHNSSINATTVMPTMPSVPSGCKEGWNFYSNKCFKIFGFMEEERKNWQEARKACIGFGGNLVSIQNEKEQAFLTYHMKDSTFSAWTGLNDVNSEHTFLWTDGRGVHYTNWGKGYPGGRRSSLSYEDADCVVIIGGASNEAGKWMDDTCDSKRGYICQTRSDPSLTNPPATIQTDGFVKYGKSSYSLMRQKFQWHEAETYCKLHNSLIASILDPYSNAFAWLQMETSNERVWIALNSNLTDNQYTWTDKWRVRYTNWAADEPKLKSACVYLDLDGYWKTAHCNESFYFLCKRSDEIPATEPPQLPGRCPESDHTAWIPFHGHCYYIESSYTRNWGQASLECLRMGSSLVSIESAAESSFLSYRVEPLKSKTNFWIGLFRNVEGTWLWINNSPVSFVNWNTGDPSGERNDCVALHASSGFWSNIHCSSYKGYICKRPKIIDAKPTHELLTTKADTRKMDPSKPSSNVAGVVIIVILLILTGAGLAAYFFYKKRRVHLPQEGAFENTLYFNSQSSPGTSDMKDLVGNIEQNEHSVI

Relative Fluorescence Intensity (RFI) above the background: 1.5 logs
Substance: FITC conjugated Mouse anti-human MRC1 antibody (BD Biosciences Cat #551135)
